Assay results published in paper PMC11742315, “Identification of a staphylococcal dipeptidase involved in the production of human body odor” (The Journal of Biological Chemistry, 2024).

Tests used:
Experiment in all cases: purified protein
[1] = test system: CCCC(C)(CCO)SC[C@H](N)C(=O)NCC(=O)O; settings: Mn2+-bound enzyme; 0.1 M Tris-HCl (pH 80 [sic]); coupled with ShPatB
N[C@@H](CS)C(=O)NCC(=O)O = settings: Mn2+-bound enzyme, 50 mM potassium phosphate, 200 mM NaCl, 37 °C
purified protein = substrate: CCCC(C)(CCO)SC[C@H](N)C(=O)NCC(=O)O; settings: 0.1 M Tris-HCl (pH 80 [sic]), coupled with ShPatB

ShPepV (Staphylococcus hominis)
Km [1]: 1290 ± 40 µM
kcat [1]: 3.41 ± 0.07 s⁻¹
kcat/Km [1]: 2640 ± 100 M⁻¹ s⁻¹
Km (N[C@@H](CS)C(=O)NCC(=O)O): 2190 ± 220 µM
kcat (N[C@@H](CS)C(=O)NCC(=O)O): 405 ± 23.6 s⁻¹
kcat/Km (N[C@@H](CS)C(=O)NCC(=O)O): 186000 ± 21800 M⁻¹ s⁻¹

B1: SaPepV (Staphylococcus aureus subsp. aureus USA300) (protein)
chain: MWKEKVQQYEDQIINDLKGLLAIESVRDDAKASEDAPVGPGPRKALDYMYEIAHRDGFTTHDVDHIAGRIEAGKGNDVLGILCHVDVVPAGDGWDSNPFEPVVTEDAIIARGTLDDKGPTIAAYYAIKILEDMNVDWKKRIHMIIGTDEESDWKCTDRYFKTEEMPTLGFAPDAEFPCIHGEKGITTFDLVQNKLTEDQDEPDYELITFKSGERYNMVPDHAEARVLVKENMTDVIQDFEYFLEQNHLQGDSTVDSGILVLTVEGKAVHGMDPSIGVNAGLYLLKFLASLNLDNNAQAFVAFSNRYLFNSDFGEKMGMKFHTDVMGDVTTNIGVITYDNENAGLFGINLRYPEGFEFEKAMDRFANEIQQYGFEVKLGKVQPPHYVDKNDPFVQKLVTAYRNQTNDMTEPYTIGGGTYARNLDKGVAFGAMFSDSEDLMHQKNEYITKKQLFNATSIYLEAIYSLCVEE
Km (purified protein; Mn2+-bound enzyme): 3340 ± 340 µM

B2: CgTpdA (Corynebacterium glaucum) (protein)
chain: MSNDNAVNSAVTSTDFTFSPNRERIFQELAELISHYSPHSMPEHAATHEEAAKWVTAKLEELGLDVTRHPTVDDADTIIGVKEPVGDAPTVLLYSHYDVVPAQNPAVWTNDPLELDERGGRWYGRGAADCKGNVIMHLAALRMVQENGGTDLGIKVVVEGSEELGGEDGLGKLIDANPELFTADVIFIGDGGNVAVGIPTLTTHLRGGAQLRIKVDTLEGPVHSGGWGGAAPDAAHALIRISDSFFDEHGRTTIEGVDTTAKWEGDPYDRETFRKDARVLDGVQLLGTVDDEPADMVWARPAITVIGFTSVPVKDATNIVNSTAEAQFNLRVPAPQSAAEVAKKVEEQIYARAPWGAKVEVSVTGVNEPFSTDPNGPAVQHFGKCMQDAYGAERLTVVGTGGSIPLTVTLQKHFPDAEFALYGVADPAANIHGIDESVDPTEIEHVAIAEATFLLTYGK
Km (purified protein): 480 ± 30 µM
